Results on one molecule are retold here after article PMC12048575, “Structure of the complex of C1q-like 3 protein with adhesion-GPCR BAI3” (Communications Biology, 2025).

This assay has as its target T1, Mouse BAI3 N-terminal domain (NTD) encompassing residues 26-290 (mouse, UniProt Q80ZF8 26-290).
T1 construct: The vector encodes a 3C site, an Fc-tag and a C-terminal His tag after the NTD; the His tag lies after the 3C site and so was probably removed with the Fc; also called BAI3 NTD; BAI3 CUB domain; source: HEK293S GnTI- cells, BacMam virus (pVLAD8L), secreted, purified (Ni2+-NTA, 3C cleavage, SEC); not shown: Fc, C-terminal, cleaved
T1 sequence (looked up): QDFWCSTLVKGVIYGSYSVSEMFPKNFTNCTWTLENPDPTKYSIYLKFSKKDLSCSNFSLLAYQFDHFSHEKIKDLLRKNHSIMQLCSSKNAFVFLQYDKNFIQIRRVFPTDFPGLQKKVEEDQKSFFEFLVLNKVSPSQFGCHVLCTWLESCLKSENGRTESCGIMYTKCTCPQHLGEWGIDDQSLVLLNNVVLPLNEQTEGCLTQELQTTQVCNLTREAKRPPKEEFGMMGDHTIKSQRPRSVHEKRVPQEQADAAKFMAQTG
Description: SEC; purified proteins mixed, size-exclusion chromatography and Coomassie-stained SDS-PAGE of fractions; 1x HBS (10 mM HEPES pH 7.2, 150 mM NaCl) with 2 mM CaCl2. The note with it: both partners purified.

B1: C1ql3 globular C1q-like domain (residues 122-255) (domain or fragment, mouse, UniProt Q9ESN4 122-255, looked up)
chain: STVPKIAFYAGLKRQHEGYEVLKFDDVVTNLGNHYDPTTGKFTCSIPGIYFFTYHVLMRGGDGTSMWADLCKNNQVRASAIAQDADQNYDYASNSVVLHLEPGDEVYIKLDGGKAHGGNNNKYSTFSGFIIYAD
notes: C1q-like 3 protein (C1ql3), mouse, C1q-like domain, residues 122-255; buffer contained 2 mM CaCl2; The tag is surmised from the Ni-NTA step; also called C1q-like domain trimer of C1ql3; C1ql3 C1q-like domain; source: Expi293F GnTI- cells, transfected (pEG BacMam), purified (Ni2+-NTA, SEC)
As to B1, the binding result was “binds”.
